# Reference: publication PMC7807878, “Development of an engineered peptide antagonist against periostin to overcome doxorubicin resistance in breast cancer” (BMC Cancer, 2021)
# Tests used:
# Type in all cases: cell-based
# [1] = system: survivin expression in BCA cells; assay: Western blot, survivin expression; details: parental BCA cells (MDA-MB-231, MCF-7), PN alone, duplicate experiments
# Method: (§1) To determine the secreted PN amount in conditioned-media of each cell, 3 × 10^5 cells were seeded into 6-well plates with 3 ml of complete media. Cell media were removed the next day and washed with phosphate-buffered saline (PBS), and serum free media was added. Media was collected at 24 h, centrifuged and supernatant was taken and concentrated by Vivaspin®6 (VS0691, Sartorius, Goettingen, Germany). Protein concentration was determined by Bradford reagent (#5000006, Bio-Rad Laboratories, Hercules, CA, USA) and the amounts were adjusted to 5 μg per loading. To determine protein expression or phosphorylation in the cellular part, 2 × 10^6 cells were lysed with RIPA buffer (sc-24,948, Santa Cruz Biotechnology, Inc., Dallas, TX, USA). Each sample was separated by sodium dodecyl sulfate (SDS) polyacrylamide gel electrophoresis (PAGE) and transferred to PVDF membrane. […] HRP was detected by Pierce™ enhanced chemiluminescence (ECL) reagent (Thermo Fisher Scientific) and chemiluminescence signal was detected by G:BOX gel documentation system (Syngene, Cambridge, UK). Expression level of PN was determined by ImageJ version 1.52a software (National Institutes of Health, Bethesda, MD, USA).
# (§2) Parental BCA cells were treated with PN and anti-PN peptides and the intracellular signaling pathway determined by western blot analysis. Akt phosphorylation and expression of survivin were detected. […]
# [2] = system: Akt phosphorylation (pAKT) in BCA cells; assay: Western blot, Akt phosphorylation; details: parental BCA cells (MDA-MB-231, MCF-7), PN alone, duplicate experiments
# Method: as §1, §2
# MDA-MB-231 cells [3] = assay: Drug sensitivity (MTS), MDA-MB-231; details: doxorubicin treated MDA-MB-231, rPN treatment experiment
# Method: (§3) Determination the IC50 of BCA cells in response to chemotherapeutic drugs was analyzed by MTS assay. The experiment started from 5 × 10^3 of BCA cells in 100 μl medium that were seeded in 96-well plates for 24 h, then media was changed with different concentrations of new chemotherapeutic drugs [doxorubicin (S1208), paclitaxel (S1150), cisplatin (S1166), 5-fluorouracil (5-FU) (S1209) and gemcitabine (S1714) that were purchased from Selleck Chemicals, Houston, TX, USA] with or without rPN and anti-PN peptide for a further 48 h. After that, cell viability was determined by the MTS assay. Combination index (CI) was calculated by IC50 of combination of drug and PN or anti-PN peptide divided by IC50 of chemotherapeutic drug alone.
# (§4) ANOVA test or Student’s t-test were applied for statistical analysis of the experiments. GraphPad Prism® version 7.04 software (GraphPad Software, San Diego, CA, USA) was used in calculation of IC50 values of chemotherapeutic drugs and PASW Statistics software version 18 (SPSS, IBM, Armonk, NY, USA) was used for other analysis. Dose-responses were compared by Holm-Sidak’s multiple comparison test. Mann-Whitney ranked-sum test was used for comparisons between normal and patient serum PN. Chi-square or Fisher’s exact test were used to determine the correlation between PN expression and clinical data in BCA patients. […]
# MCF-7 cells [4] = assay: Proliferation assay (MTS), MCF-7; details: rPN 100 ng/ml, 72 h, not statistically significant
# Method: (§5) The proliferation assay of BCA cells was determined by the cell viability assay using CellTiter 96® Aqueous One Solution Cell Proliferation Assay (MTS assay) (Promega, Madison, WI, USA). Briefly, 3 × 10^3 cells in 100 μl medium were seeded in 96-well plates for 24 h. The day 1 baseline determination used the MTS assay following company instructions. For the experiment, cells were placed into new media containing 2% FBS with or without rPN (100 ng/ml) and anti-PN peptide (1 μM) and cells were cultured for a further 72 h. After treatment, cell viability was measured by the MTS assay. Proliferation rate was calculated as the folding of cell numbers increased from the baseline.
# MDA-MB-231 cells [5] = assay: Wound healing migration assay, MDA-MB-231; details: rPN 100 ng/ml vs untreated control; P-value = 0.033
# Method: (§6) The wound healing assay was performed to determine migration activity of the BCA cells after treatment under various conditions. Briefly, 5 × 10^4 cells of parental BCA cells or mock/PN-transfected cells were seeded in 24-well culture plates with their regular media for 24 h and media changed to 1% FBS with or without rPN (100 ng/ml) and anti-PN peptide (1 μM) and culture continued for 1 day until they reached approximately 95% confluency. Wounds were applied by scratching using 200 μl micropipette tip in a single straight line. The media with floating cells would be removed and refilled with the new experimental media. The culture process would be continued for a further 24 h and photos of the area would be taken at 8 h intervals. The migration area would be analyzed from the photos taken using TScratch version 1.0 software (https://github.com/cselab/TScratch) and migration activity calculated as μm^2/h. Independent duplicated experiments were performed.
# MCF-7 cells [6] = assay: Drug sensitivity (MTS), MCF-7; details: doxorubicin treated MCF-7, rPN treatment experiment
# Method: as §3, §4
# MDA-MB-231 cells [7] = assay: Proliferation assay (MTS), MDA-MB-231; details: rPN 100 ng/ml, 72 h, P-value = 0.004
# Method: as §5
# MCF-7 cells [8] = assay: Wound healing migration assay, MCF-7; details: rPN 100 ng/ml vs untreated control; P-value = 0.030
# Method: as §6
molecule,measurement,setting,value
"rPN: recombinant PN (periostin), BioVendor (protein) NNHYDKILAHSRIRGRDQGPNVCALQQILGTKKKYFSTCKNWYKKSICGQKTTVLYECCPGYMRMEGMKGCPAVLPIDHVYGTLGIVGATTTQRYSDASKLREEIEGKGSFTYFAPSNEAWDNLDSDIRRGLESNVNVELLNALHSHMINKRMLTKDLKNGMIIPSMYNNLGLFINHYPNGVVTVNCARIIHGNQIATNGVVHVIDRVLTQIGTSIQDFIEAEDDLSSFRAAAITSDILEALGRDGHFTLFAPTNEAFEKLPRGVLERIMGDKVASEALMKYHILNTLQCSESIMGGAVFETLEGNTIEIGCDGDSITVNGIKMVNKKDIVTNNGVIHLIDQVLIPDSAKQVIELAGKQQTTFTDLVAQLGLASALRPDGEYTLLAPVNNAFSDDTLSMDQRLLKLILQNHILKVKVGLNELYNGQILETIGGKQLRVFVYRTAVCIENSCMEKGSKQGRNGAIHIFREIIKPAEKSLHEKLKQDKRFSTFLSLLEAADLKELLTQPGDWTLFVPTNDAFKGMTSEEKEILIRDKNALQNIILYHLTPGVFIGKGFEPGVTNILKTTQGSKIFLKEVNDTLLVNELKSKESDIMTTNGVIHVVDKLLYPADTPVGNDQLLEILNKLIKYIQIKFVRGSTFKEIPVTVYTTKIITKVVEPKIKVIEGSLQPIIKTEGPTLTKVKIEGEPEFRLIKEGETITEVIHGEPIIKKYTKIIDGVPVEITEKETREERIITGPEIKYTRISTGGGETEETLKKLLQEEVTKVTKFIEGGDGHLFEDEEIKRLLQGDTPVRKLQANKKVQGSRRRLREGRSQ",Effect of PN on survivin expression,[1],could increase phosphorylation of Akt and survivin expression in all BCA cells
same,Effect of PN on Akt phosphorylation,[2],could increase phosphorylation of Akt
same,Combination index (CI) of PN,MDA-MB-231 cells [3],2.36
same,Effect of rPN on proliferation,MCF-7 cells [4],could increase cell numbers
same,Effect of rPN on migration rate,MDA-MB-231 cells [5],had a higher migration rate than the untreated control with statistical significance
same,Combination index (CI) of PN,MCF-7 cells [6],1.39
same,Effect of rPN on proliferation,MDA-MB-231 cells [7],significantly showed induction of cell proliferation
same,Effect of rPN on migration rate,MCF-7 cells [8],had a higher migration rate than the untreated control with statistical significance
